# Source: article PMC6256979, “Screening and Improvement of an Anti-VEGF DNA Aptamer”
# How the values were obtained:
# VEGF-A121 = VEGF-A121 (Homo sapiens (Human), UniProt P15692 27-147, none (E. coli)); experiment: SPR; TBSE 10 mM Tris-HCl pH 7.0, 100 mM NaCl, 0.05 mM EDTA (folded with 50 mM KCl in Fig 3), 24 C; VEGF on CM5; conditions: chain copies: 2
# VEGF-A165 = VEGF-A165 (Homo sapiens (Human), UniProt P15692 27-191, N-glycosylated (Sf21)); experiment: as above; conditions: chain copies: 2
# Chain of VEGF-A165 (P15692 other isoform, or with tags, fused parts or gaps): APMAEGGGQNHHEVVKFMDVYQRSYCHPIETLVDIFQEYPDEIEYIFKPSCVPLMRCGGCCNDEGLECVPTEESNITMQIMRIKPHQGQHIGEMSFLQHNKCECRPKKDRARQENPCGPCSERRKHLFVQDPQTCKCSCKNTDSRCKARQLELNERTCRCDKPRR
# Chain of VEGF-A121 (P15692 other isoform, or with tags, fused parts or gaps): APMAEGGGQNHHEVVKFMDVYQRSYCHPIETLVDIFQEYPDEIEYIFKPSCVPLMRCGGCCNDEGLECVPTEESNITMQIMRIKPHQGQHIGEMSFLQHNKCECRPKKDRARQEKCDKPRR
Binder,Kd (VEGF-A121) [nM],Kd (VEGF-A165) [nM]
"TGTGGGGGTGGACGGGCCGGGTAGA (ssDNA, G-quadruplex) [V7t1]",1.1,–
"Vap7 (ssDNA, G-quadruplex) DNA: ATACCAGTCTATTCAATTGCACTCTGTGGGGGTGGACGGGCCGGGTAGATAGTATGTGCAATCA",1,20
